This passage reports stoichiometry N, dwell time and dwell time (small particles of the XCAP1-actin complex preparation) results from doi:10.1101/2025.08.14.670363.

Assay [1] deals with actin-free Xenopus cyclase-associated protein 1 (Xenopus laevis). As to the kind of experiment: high-speed atomic force microscopy; F-actin held on a mica-supported lipid bilayer (DPPC:DPTAP:biotin-cap-DPPE 89:10:1); actin-free XCAP1 or XCAP1-actin complex injected at 20-100 nM; 30 mM KCl, 10 mM imidazole-HCl pH 7.0, 1 mM MgCl2, 0.5 mM EGTA, 10 mM DTT, 10 % glycerol, 0.2 mM ATP; room temperature; dwell time of single particles.

The target of assay [2] is Rabbit skeletal muscle actin filaments (rabbit) (UniProt P68135). The description is as above.

By stoichiometry N is commonly meant a count of units in the complex or per binding partner. For the substance “actin-free Xenopus cyclase-associated protein 1 (natural protein)”, the stoichiometry N in assay [1] is 4. In addition, in assay [2], the dwell time came out at 0.2 s, the dwell time (small particles of the XCAP1-actin complex preparation) is 0.2 s, the dwell time at the filament end is 0.24 s and the dwell time at the filament side amounted to 0.2 s.
